The values below come from US20120082682A1 (GlaxoSmithKline, published 2012).

The target of assay [1] is T1, human IL-4 (recombinant E. coli-expressed) (human, UniProt P05112 25-153).
T1 sequence (looked up): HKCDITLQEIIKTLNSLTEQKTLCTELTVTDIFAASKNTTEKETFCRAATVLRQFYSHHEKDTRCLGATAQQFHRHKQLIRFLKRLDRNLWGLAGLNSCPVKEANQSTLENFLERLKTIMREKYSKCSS
Put plainly: cell-based or functional assay.

In assay [2] the target is T2, human IL-13 (recombinant E. coli-expressed) (human, UniProt P35225 35-146).
T2 construct: also called hIL-13
T2 sequence (P35225 other isoform, or with tags, fused parts or gaps limits assumed): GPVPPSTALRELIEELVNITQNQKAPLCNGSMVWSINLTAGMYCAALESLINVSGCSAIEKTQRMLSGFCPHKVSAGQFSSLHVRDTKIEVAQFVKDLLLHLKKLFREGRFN
As to the kind of experiment: Biacore T100 SPR, Protein A capture (CM5), human IL13 analyte, 1:1 fit. How it is done:
Protein A was immobilised on a CM5 chip by primary amine coupling; this surface was used as a capture surface for the antibody molecules to be tested. […] All binding curves were double referenced with a 0 nM injection (i.e. buffer alone).
Regeneration of the Protein A surface was with 50 mM NaOH. The assay was run at 25° C. using HBS-EP as running buffer. The data was fitted to 1:1 model inherent to the Biacore T100 analysis software.
On the technique in general: In SPR one partner is held on a chip, and binding of the other changes the refractive index at the surface.

The target in assay [3] is T1, human IL-4 (recombinant E. …). As to the kind of experiment: Biacore T100 SPR, Protein A capture (CM5), human IL4 analyte, 1:1 fit. How it is done:
Purified mAbs and mAbdAb constructs were tested in a BIAcore assay to determine whether the mutation of position 89 had any effect on the binding of the dAb to IL-4.
Protein A was immobilised on a CM5 chip by primary amine coupling; this surface was used as a capture surface for the antibody molecules to be tested. […] Regeneration of the […] surface was achieved using 50 mM NaOH. The assay was run at 25° C. using HBS-EP as running buffer. The data was fitted to 1:1 model inherent to the Biacore T100 analysis software.

For assay [4] the target is unchanged. As to the kind of experiment: direct binding ELISA, plate coated with 5 ug/ml human IL-4, anti-human kappa light chain-HRP detection, absorbance at 490 nm. How it is done: 96-well high binding plates were coated with 5 μg/ml human IL-4 (made at GSK) in NaHCO₃ and stored overnight at 4° C. The plates were washed twice with Tris-Buffered Saline with 0.05% of Tween-20 (TBST). 100 μL of blocking solution (1% BSA in TBST buffer) was added in each well and the plates were incubated for at least one hour at room temperature. The mAbdAbs were successively diluted across the plates in blocking solution. After one hour incubation, the plates were washed three times. Goat anti-human kappa light chain specific peroxidase conjugated antibody (Sigma A7164) was diluted in blocking solution to 1 μg/mL and 50 μL was added to each well. The plates were incubated for one hour. After another three washing steps, 50 μl of OPD (o-phenylenediamine dihydrochloride) SigmaFast substrate solution was added to each well and the reaction was stopped after about 5 minutes by addition of 25 μL of 3M sulphuric acid. Absorbance was read at 490 nm using the VersaMax Tunable Microplate Reader (Molecular Devices) using a basic endpoint protocol.

The target is the same in assay [5]. As to the kind of experiment: Biacore T100 SPR, Protein A capture (CM5), human IL4 analyte, 1:1 fit. How it is done: (§1) Protein A was immobilised on a CM5 chip by primary amine coupling; this surface was used as a capture surface for the antibody molecules to be tested.
(§2) All binding curves were double referenced with a 0 nM injection (i.e. buffer alone). Regeneration of the Protein A surface was with 50 mM NaOH. The assay was run at 25° C. using HBS-EP as running buffer. The data was fitted to 1:1 model inherent to the Biacore T100 analysis software.
The source holds these as a separate data set.

Assay [6] has the same target. As to the kind of experiment: Biacore T100 SPR, Protein A capture (CM5), 1:1 fit; paragraph 260 calls Table 20 IL13, its footnote and values point to IL4. As to the method:
(§3) Protein A was immobilised on a CM5 chip by primary amine coupling; this surface was used as a capture surface for the antibody molecules to be tested. […] Regeneration the Protein A surface was with 50 mM NaOH. The assay was run at 25° C. using HBS-EP as running buffer. The data was fitted to 1:1 model inherent to the Biacore T100 analysis software.

In assay [7] the target is T2, human IL-13 (recombinant E. …). As to the kind of experiment: Biacore T100 SPR, Protein A capture (CM5), 1:1 fit; paragraph 260 calls Table 21 IL4, the values match IL13 (tables seem swapped). As to the method:
as §3

The target in assay [8] is T1, human IL-4 (recombinant E. …). As to the kind of experiment: Biacore T100 SPR, Protein A capture (C1 chip), human IL4 analyte, 1:1 fit; on-rate beyond the sensitivity of Biacore (footnote). How it is done: (§4) Protein A was immobilised on a Cl chip by primary amine coupling; this surface was used as a capture surface for the antibody molecules to be tested. […] Regeneration the Protein A surface was with 100 mM Phosphoric acid. The assay was run at 25° C. using HBS-EP as running buffer. The data was fitted to 1:1 model inherent to the Biacore T100 analysis software.

Assay [9] shares this target. As to the kind of experiment: Biacore T100 SPR, Protein A capture (CM5), human IL4 analyte. How it is done: as §1, §2
Assay [10] shares this target. Put plainly: Biacore T100 SPR, Protein A capture (CM5), human IL4 analyte, 1:1 fit; footnote: impossible on-rate. How it is done: as §1, §2
Assay [11] shares this target. As to the kind of experiment: Biacore T100 SPR, Protein A capture (CM5), human IL4 analyte, 1:1 fit; footnote: rates not measurable. How it is done: as §1, §2
For assay [12] the target is unchanged. Put plainly: Biacore T100 SPR, Protein A capture (C1 chip), human IL4 analyte, 1:1 fit. As to the method: as §4

B1: DOM9-155-154 (other)
VL: DIQMTQSPSSLSASVGDRVTITCRASRPISDWLHWYQQKPGKAPKLLIAWASSLQGGVPSRFSGSGSGTDFTLTISSLQPEDFATYYCLQEGWGPPTFGQGTKVEIKR
B1: in [1], the “Mean ND50 value (nM), TF-1 cell proliferation bioassay” value is 0.98 nM.

B2: BPC1085 (bispecific antibody, human IgG1, kappa)
heavy: not shown
light: DIVMTQSPLSLPVTPGEPASISCRSSQNIVHINGNTYLEWYLQKPGQSPRLLIYKISDRFSGVPDRFSGSGSGTDFTLKISRVEADDVGIYYCFQGSHVPWTFGQGTKLEIKRTVAAPSVFIFPPSDEQLKSGTASVVCLLNNFYPREAKVQWKVDNALQSGNSQESVTEQDSKDSTYSLSSTLTLSKADYEKHKVYACEVTHQGLSSPVTKSFNRGEC
notes: also called 829H-GS(TVAAPSGS)2-154 (89Q)
As a reminder, the Kd is the concentration at which binding is half-saturated. For orientation: EC50 (read off the curve) means the midpoint of the concentration-response curve. B2: the Kd was found to be 0.073 nM in assay [2], 0.052 nM in assay [3], 0.078 nM in [5] and 0.048 nM in [6]. Further, the “EC50 (read off the curve)” value in assay [4] is approximately 4 nM. The “Mean ND50 value (nM), TF-1 cell proliferation bioassay” value in [1] was 9.21 nM.

B3: BPC1086 (bispecific antibody, human IgG1, kappa)
heavy: not shown
light: DIVMTQSPLSLPVTPGEPASISCRSSQNIVHINGNTYLEWYLQKPGQSPRLLIYKISDRFSGVPDRFSGSGSGTDFTLKISRVEADDVGIYYCFQGSHVPWTFGQGTKLEIKRTVAAPSVFIFPPSDEQLKSGTASVVCLLNNFYPREAKVQWKVDNALQSGNSQESVTEQDSKDSTYSLSSTLTLSKADYEKHKVYACEVTHQGLSSPVTKSFNRGEC
notes: also called 829H-GS(TVAAPSGS)3-154 (89Q)
What is called koff is the first-order rate constant of dissociation. As usually defined, the kon is the second-order rate constant of association. As for B3, in [7], the Kd amounted to 0.051 nM, the koff is 6.57e-05 s⁻¹ and the kon worked out at 1.28e+06 M⁻¹ s⁻¹. Further, the “EC50 (read off the curve)” value in assay [4] is approximately 4 nM.

B4: BPC2230 (bispecific antibody, human IgG1, kappa)
heavy: not shown
light: DIVMTQSPLSLPVTPGEPASISCRSSQNIVHINGNTYLEWYLQKPGQSPRLLIYKISDRFSGVPDRFSGSGSGTDFTLKISRVEADDVGIYYCFQGSHVPWTFGQGTKLEIKRTVAAPSVFIFPPSDEQLKSGTASVVCLLNNFYPREAKVQWKVDNALQSGNSQESVTEQDSKDSTYSLSSTLTLSKADYEKHKVYACEVTHQGLSSPVTKSFNRGEC
notes: mAbdAb with the original CDRH3 and the unmutated DOM9-155-154 dAb
Turning to B4, the Kd in assay [8] was determined as 0.01 nM.

B5: BPC2231 (bispecific antibody, human IgG1, kappa)
heavy: not shown
light: DIVMTQSPLSLPVTPGEPASISCRSSQNIVHINGNTYLEWYLQKPGQSPRLLIYKISDRFSGVPDRFSGSGSGTDFTLKISRVEADDVGIYYCFQGSHVPWTFGQGTKLEIKRTVAAPSVFIFPPSDEQLKSGTASVVCLLNNFYPREAKVQWKVDNALQSGNSQESVTEQDSKDSTYSLSSTLTLSKADYEKHKVYACEVTHQGLSSPVTKSFNRGEC
notes: as for B4
Turning to B5, the “EC50 (read off the curve)” value in assay [4] was approximately 3 nM. The Kd in assay [8] was 0.006 nM; in [6], 0.002 nM.

B6: BPC1119 (bispecific antibody, human IgG1, kappa)
heavy: not shown
light: DIVMTQSPLSLPVTPGEPASISCRSSQNIVHINGNTYLEWYLQKPGQSPRLLIYKISDRFSGVPDRFSGSGSGTDFTLKISRVEADDVGIYYCFQGSHVPWTFGQGTKLEIKRTVAAPSVFIFPPSDEQLKSGTASVVCLLNNFYPREAKVQWKVDNALQSGNSQESVTEQDSKDSTYSLSSTLTLSKADYEKHKVYACEVTHQGLSSPVTKSFNRGEC
notes: mAbdAb; dAb Kabat 89 P; also called 829H-(TVAAPS)2GS-154 (89P)
In the case of B6, the binding result in assay [9] is on record as “no binding (tested: IL4 up to 64 nM)”.

B7: BPC1115 (bispecific antibody, human IgG1, kappa)
heavy: not shown
light: DIVMTQSPLSLPVTPGEPASISCRSSQNIVHINGNTYLEWYLQKPGQSPRLLIYKISDRFSGVPDRFSGSGSGTDFTLKISRVEADDVGIYYCFQGSHVPWTFGQGTKLEIKRTVAAPSVFIFPPSDEQLKSGTASVVCLLNNFYPREAKVQWKVDNALQSGNSQESVTEQDSKDSTYSLSSTLTLSKADYEKHKVYACEVTHQGLSSPVTKSFNRGEC
notes: mAbdAb; dAb Kabat 89 Y; also called 829H-(TVAAPS)2GS-154 (89Y)
For the molecule B7, in [10], the Kd amounted to 2.29 nM, the koff stood at 0.329 s⁻¹ and the on-rate (kon) amounted to 1.44e+08 M⁻¹ s⁻¹.

B8: BPC1112 (bispecific antibody, human IgG1, kappa)
heavy: not shown
light: DIVMTQSPLSLPVTPGEPASISCRSSQNIVHINGNTYLEWYLQKPGQSPRLLIYKISDRFSGVPDRFSGSGSGTDFTLKISRVEADDVGIYYCFQGSHVPWTFGQGTKLEIKRTVAAPSVFIFPPSDEQLKSGTASVVCLLNNFYPREAKVQWKVDNALQSGNSQESVTEQDSKDSTYSLSSTLTLSKADYEKHKVYACEVTHQGLSSPVTKSFNRGEC
notes: mAbdAb; dAb Kabat 89 K; also called 829H-(TVAAPS)2GS-154 (89K)
For B8, in assay [11], the Kd amounted to 29 nM and the koff worked out at 3.31 s⁻¹.

B9: BPC2223 (bispecific antibody, human IgG1, kappa)
heavy: not shown
light: DIVMTQSPLSLPVTPGEPASISCRSSQNIVHINGNTYLEWYLQKPGQSPRLLIYKISDRFSGVPDRFSGSGSGTDFTLKISRVEADDVGIYYCFQGSHVPWTFGQGTKLEIKRTVAAPSVFIFPPSDEQLKSGTASVVCLLNNFYPREAKVQWKVDNALQSGNSQESVTEQDSKDSTYSLSSTLTLSKADYEKHKVYACEVTHQGLSSPVTKSFNRGEC
notes: as for B4
In the case of B9, the Kd in [3] came to 0.01 nM; in assay [12] it was 0.018 nM.

B10: BPC1113 (bispecific antibody, human IgG1, kappa)
heavy: not shown
light: DIVMTQSPLSLPVTPGEPASISCRSSQNIVHINGNTYLEWYLQKPGQSPRLLIYKISDRFSGVPDRFSGSGSGTDFTLKISRVEADDVGIYYCFQGSHVPWTFGQGTKLEIKRTVAAPSVFIFPPSDEQLKSGTASVVCLLNNFYPREAKVQWKVDNALQSGNSQESVTEQDSKDSTYSLSSTLTLSKADYEKHKVYACEVTHQGLSSPVTKSFNRGEC
notes: mAbdAb; dAb Kabat 89 D; also called 829H-(TVAAPS)2GS-154 (89D)
As for B10, the binding result in [9] is listed as “no binding (tested: IL4 up to 64 nM)”.
